This test addresses microtubule polymers. Conditions: domain or fragment; chains chain; Polymerised alpha/beta-tubulin heterodimers (one repeat given). Source is not printed (assay 'as previously described' in a cited paper); commercial mammalian brain tubulin is assumed, porcine taken as likeliest (bovine possible). Brain tubulin is an isotype mixture with heterogeneous PTMs (acetyl-Lys40, detyrosination, polyglutamylation); TUBA1B and the pig beta chain are representatives only. GT; modification not given.

B1: Smc5 hinge domain (residues 215–885), Q08204 215-885 (protein)
chain: LRELQGNEQSLQKDLDFKKAKIVHLRQESDKLRKSVESLRDFQNKKGEIELHSQLLPYVKVKDHKEKLNIYKEEYERAKANLRAILKDKKPFANTKKTLENQVEELTEKCSLKTDEFLKAKEKINEIFEKLNTIRDEVIKKKNQNEYYRGRTKKLQATIISTKEDFLRSQEILAQTHLPEKSVFEDIDIKRKEIINKEGEIRDLISEIDAKANAINHEMRSIQRQAESKTKSLTTTDKIGILNQDQDLKEVRDAVLMVREHPEMKDKILEPPIMTVSAINAQFAAYLAQCVDYNTSKALTVVDSDSYKLFANPILDKFKVNLRELSSADTTPPVPAETVRDLGFEGYLSDFITGDKRVMKMLCQTSKIHTIPVSRRELTPAQIKKLITPRPNGKILFKRIIHGNRLVDIKQSAYGSKQVFPTDVSIKQTNFYQGSIMSNEQKIRIENEIINLKNEYNDRKSTLDALSNQKSGYRHELSELASKNDDINREAHQLNEIRKKYTMRKSTIETLREKLDQLKREARKDVSQKIKDIDDQIQQLLLKQRHLLSKMASSMKSLKNCQKELISTQILQFEAQNMDVSMNDVIGFFNEREADLKSQYEDKKKFVKEMRDTPEFQSWMREIRSYDQDTKEKLNKVAEKYEEEGNFNLSFVQDVLDKLESEIAMVNHDES
Take B1: the Kd (usually the free concentration of one partner at which half of the binding sites on the other are occupied at equilibrium, for simple one-to-one binding) worked out at 0.69 µM.

The values above are taken from paper PMC13470446.
